Data on 1 molecule can be found in paper PMC1868780, “Short RNA Guides Cleavage by Eukaryotic RNase III”.

The target in this series is T1, Rnt1p (yeast RNase III) (Saccharomyces cerevisiae, UniProt Q02555 1-471).
T1 sequence: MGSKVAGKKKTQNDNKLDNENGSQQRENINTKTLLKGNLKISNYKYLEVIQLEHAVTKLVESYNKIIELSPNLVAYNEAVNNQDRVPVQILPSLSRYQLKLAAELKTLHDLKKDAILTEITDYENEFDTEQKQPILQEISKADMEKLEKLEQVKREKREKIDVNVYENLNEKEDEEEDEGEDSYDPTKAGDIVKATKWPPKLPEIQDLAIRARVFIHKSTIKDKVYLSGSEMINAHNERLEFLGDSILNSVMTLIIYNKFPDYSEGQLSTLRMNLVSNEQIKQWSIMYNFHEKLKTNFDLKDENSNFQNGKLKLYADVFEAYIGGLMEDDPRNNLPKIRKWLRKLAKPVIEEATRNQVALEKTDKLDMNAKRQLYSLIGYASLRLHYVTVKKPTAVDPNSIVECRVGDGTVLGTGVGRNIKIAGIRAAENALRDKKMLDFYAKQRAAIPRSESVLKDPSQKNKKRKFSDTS
Nature of the series: EMSA; apparent K'd; Protein EMSA as in cited ref 12 (buffer not given): 3 fmol 5'-labeled RNA, Rnt1p 0.25-6 uM; trans reactions with 2 pmol cold target. Particulars: protein: recombinant; chain copies: 2; label: 5'-32P; hairpin. Background: Mobility shift assays separate free from complexed probe on a gel.

B1: 3'-Branch (structured_RNA)
RNA: GCUUGAAGAGGAUGAGUCCAUCCCCAAAACAUUAGCUUGAAAAAGCUAAUGUUUUGGAAUCUUCAAGAUUAUGG
Turning to B1, the Kd worked out at 750 nM.
